Data reported in patent publication US20100136005A1 (Genentech, published 2010).
Substitutions are numbered along the chain they refer to. One block for each binder: values may come before it.

Tests used:
[1] = biological target: T1, human CD11a (human, UniProt P20701 26-1170); experiment: cell-based or functional assay
[2] = biological target: T1, human CD11a; experiment: cell-based or functional assay; remark: listed apart in the source
[3] = biological target: T2, rhesus CD11a (rhesus, UniProt H9Z8N3 26-1169); experiment: cell binding, rhesus against human CD11a
T2 construct: whole, on cells; also called rhCD11a
T2 sequence: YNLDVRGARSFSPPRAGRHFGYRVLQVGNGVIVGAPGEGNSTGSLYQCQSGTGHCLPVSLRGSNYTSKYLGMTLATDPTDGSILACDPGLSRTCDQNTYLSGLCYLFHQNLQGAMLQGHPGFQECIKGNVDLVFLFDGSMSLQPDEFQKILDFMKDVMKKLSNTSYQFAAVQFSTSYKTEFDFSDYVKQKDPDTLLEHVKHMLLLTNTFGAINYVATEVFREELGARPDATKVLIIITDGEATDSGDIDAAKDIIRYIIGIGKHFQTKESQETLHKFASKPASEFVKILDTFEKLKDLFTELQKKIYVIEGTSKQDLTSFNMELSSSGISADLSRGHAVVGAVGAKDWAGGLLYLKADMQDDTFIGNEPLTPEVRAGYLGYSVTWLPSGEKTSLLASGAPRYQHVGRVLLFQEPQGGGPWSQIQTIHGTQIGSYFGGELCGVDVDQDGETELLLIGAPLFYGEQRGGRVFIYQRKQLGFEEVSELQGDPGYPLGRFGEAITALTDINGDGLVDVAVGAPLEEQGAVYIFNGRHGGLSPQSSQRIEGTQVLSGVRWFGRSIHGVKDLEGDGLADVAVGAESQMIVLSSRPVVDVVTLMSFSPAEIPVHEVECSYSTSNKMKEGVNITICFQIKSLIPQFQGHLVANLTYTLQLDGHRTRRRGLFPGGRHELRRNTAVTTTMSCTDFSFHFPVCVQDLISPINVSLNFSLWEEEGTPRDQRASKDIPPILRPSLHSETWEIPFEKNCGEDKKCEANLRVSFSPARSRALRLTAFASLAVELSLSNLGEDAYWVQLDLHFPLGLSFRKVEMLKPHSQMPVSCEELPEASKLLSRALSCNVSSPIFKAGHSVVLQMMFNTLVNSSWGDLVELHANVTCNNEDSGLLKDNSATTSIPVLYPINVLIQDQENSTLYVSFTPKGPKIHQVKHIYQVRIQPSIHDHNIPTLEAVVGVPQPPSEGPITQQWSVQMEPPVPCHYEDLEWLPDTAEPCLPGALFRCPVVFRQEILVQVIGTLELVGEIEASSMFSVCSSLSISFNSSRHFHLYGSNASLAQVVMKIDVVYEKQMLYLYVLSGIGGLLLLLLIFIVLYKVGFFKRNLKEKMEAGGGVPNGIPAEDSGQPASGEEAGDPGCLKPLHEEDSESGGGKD

[4] = biological target: T2, rhesus CD11a; experiment: binding to rhesus peripheral blood lymphocytes; end assigned by the printed EC50s
[5] = biological target: T2, rhesus CD11a; experiment: rhesus EC50 of the variant against human EC50 of HuIgG1; end assigned by the printed EC50s
[6] = biological target: T3, rhesus-human chimeric CD11a (human (I-domain mutated to rhesus), UniProt P20701 26-1170); experiment: cell-based or functional assay
T3 sequence (looked up): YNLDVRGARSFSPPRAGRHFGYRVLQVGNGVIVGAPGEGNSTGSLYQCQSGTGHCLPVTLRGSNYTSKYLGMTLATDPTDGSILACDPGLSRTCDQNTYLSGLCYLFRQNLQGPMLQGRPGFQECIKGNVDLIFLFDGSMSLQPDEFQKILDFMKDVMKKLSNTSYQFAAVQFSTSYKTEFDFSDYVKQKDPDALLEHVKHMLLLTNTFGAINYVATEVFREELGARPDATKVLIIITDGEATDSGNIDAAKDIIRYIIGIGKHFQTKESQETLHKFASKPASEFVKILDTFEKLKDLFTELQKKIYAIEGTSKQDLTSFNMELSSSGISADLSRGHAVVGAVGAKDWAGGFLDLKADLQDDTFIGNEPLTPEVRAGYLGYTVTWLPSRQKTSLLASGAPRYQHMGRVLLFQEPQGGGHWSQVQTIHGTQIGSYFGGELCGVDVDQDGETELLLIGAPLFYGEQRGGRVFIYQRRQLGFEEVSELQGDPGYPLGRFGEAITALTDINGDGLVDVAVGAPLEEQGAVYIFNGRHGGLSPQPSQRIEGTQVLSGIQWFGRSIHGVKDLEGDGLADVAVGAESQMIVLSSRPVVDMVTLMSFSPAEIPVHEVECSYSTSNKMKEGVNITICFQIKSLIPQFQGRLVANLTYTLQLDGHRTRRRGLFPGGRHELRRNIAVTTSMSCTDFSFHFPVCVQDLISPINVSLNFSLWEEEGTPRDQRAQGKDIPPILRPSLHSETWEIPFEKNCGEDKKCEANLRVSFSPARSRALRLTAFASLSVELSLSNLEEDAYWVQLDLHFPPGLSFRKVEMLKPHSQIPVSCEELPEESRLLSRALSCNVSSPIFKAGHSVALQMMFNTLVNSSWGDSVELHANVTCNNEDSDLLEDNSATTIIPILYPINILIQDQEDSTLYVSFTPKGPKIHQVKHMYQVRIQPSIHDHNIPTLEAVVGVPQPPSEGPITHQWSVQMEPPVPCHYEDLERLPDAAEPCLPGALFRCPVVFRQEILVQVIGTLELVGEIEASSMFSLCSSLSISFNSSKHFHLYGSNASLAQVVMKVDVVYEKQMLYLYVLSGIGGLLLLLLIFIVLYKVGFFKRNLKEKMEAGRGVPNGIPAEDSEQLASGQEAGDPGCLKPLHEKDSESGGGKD

[7] = biological target: T2, rhesus CD11a; experiment: cell-based or functional assay
[8] = biological target: T3, rhesus-human chimeric CD11a; experiment: cell-based or functional assay; remark: listed apart in the source
[9] = biological target: T2, rhesus CD11a; experiment: cell-based or functional assay; remark: listed apart in the source
[10] = biological target: T2, rhesus CD11a; experiment: saturation binding, Kd(app) compared
Method: Antibody affinities were determined by saturation binding using either peripheral blood mononuclear cells (murine MHM24 and HuIgG1) or rhesus leukocytes (MHM23, RhIgG1). In each assay, a radiolabeled antibody was serially diluted in HBSS-0.2% gelatin in quadruplicate. Nonspecific binding was determined by the addition of 500 nM final concentration of homologous unlabeled antibody in duplicate through the serial dilution. Human lymphocytes or rhesus leukocytes were added to the plates in a volume of 170 μl per well. Plates were incubated for 2 hr at room temperature on an orbital plate shaker. After incubation, cells were harvested using a SKATRON™ cell harvester (Lier, Norway) and washed 10 times with PBS containing 0.25% gelatin and 0.1% sodium azide. Samples were then counted for 1 min in an LBK Wallac GammaMaster gamma counter (Gaithersburg, Md.). Data was transformed from counts per minute to nanomolarity and four-parameter curve-fitting of saturation plots (bound versus total) was then performed to determine Kd (app) values.

[11] = biological target: T2, rhesus CD11a; experiment: cell-based or functional assay; remark: listed apart in the source
[12] = biological target: T1, human CD11a; experiment: FACScan, Jurkat cells; ratio to HuIgG1 EC50 (0.042 nM)
Method: Aliquots of 10⁶ Jurkat T-cells were incubated with serial dilutions of humanized and control antibodies in PBS-0.1% BSA-10 mM sodium azide for 45 min at 4° C. The cells were washed and then incubated in fluorescein-conjugated goat anti-human F(ab′)₂ (Organon Teknika, Westchester, Pa.) for 45 min at 4° C. Cells were washed and analysed on a FACScan (Becton Dickinson, Mountain View, Calif.). 8×10³ cells were acquired by list mode and gated by forward light scatter versus side light scatter, thereby excluding dead cells and debris.

[13] = biological target: T2, rhesus CD11a; experiment: binding to rhesus peripheral blood lymphocytes
[14] = biological target: T2, rhesus CD11a; experiment: binding to rhesus peripheral blood lymphocytes; ratio to HuIgG1 EC50 (45.6 nM)
[15] = biological target: T2, rhesus CD11a; experiment: as above; remark: listed apart in the source

B2: humanized MHM24 HuIgG1 (antibody, V domains shown)
VH: EVQLVESGGGLVQPGGSLRLSCAASGYSFTGHWMNWVRQAPGKGLEWVGMIHPSDSETRYNQKFKDRFTISVDKSKNTLYLQMNSLRAEDTAVYYCARGIYFYGTTYFDYWGQGTLVTVSS
VL: DIQMTQSPSSLSASVGDRVTITCRASKTISKYLAWYQQKPGKAPKLLIYSGSTLQSGVPSRFSGSGSGTDFTLTISSLQPEDFATYYCQQHNEYPLTFGQGTKVEIKR
notes: F(ab)-8 VL and VH fused to human constant light and IgG1 heavy chains; also called huMHM24
- IC50 Value (nM), Jurkat:HuK cell adhesion [1]: 0.13 nM
- IC50 Value (nM), human mixed lymphocyte response [2]: 0.38 nM
- fold reduction in binding (rhesus against human CD11a) [3]: ~1000 fold

B3: H2C11 (antibody, V domains shown)
VH: B2 VH with H52A, S54A, D55S, E57N
VL: B2 VL
- fold improvement over the EC50 of HuIgG1 for rhesus CD11a [4]: 240 to 415 fold
- fold weaker than the EC50 of HuIgG1 for human CD11a [5]: 3 to 5 fold

B5: AspH54Asn (antibody, human IgG1, V domains shown)
VH: B2 VH with D55N
VL: DIQMTQSPSSLSASVGDRVTITCRASKTISKYLAWYQQKPGKAPKLLIYSGSTLQSGVPSRFSGSGSGTDFTLTISSLQPEDFATYYCQQHNEYPLTFGQGTKVEIK
notes: HuIgG1 variant (human IgG1); also called AspH54 change to Asn
- Variant EC50/HuIgG1 EC50 [12]: 26 ratio
- fold improvement of rhesus binding (against HuIgG1) [13]: 10 fold
- Variant EC50/HuIgG1 EC50 [14]: 0.1 ratio

B6: SerL52Ala (antibody, human IgG1, V domains shown)
VH: B2 VH
VL: B2 VL with S52A
notes: HuIgG1 variant (human IgG1)
- Var.EC50/HuIgG1 EC50 [15]: 13.3 ratio

The next lines start with the values.

- IC50 Value (nM), Jurkat:HuK cell adhesion [1]: 0.09 nM
- IC50 Value (nM), human mixed lymphocyte response [2]: 0.19 nM
- fold reduction in binding (rhesus against human CD11a) [3]: ~1000 fold
B1: murine MHM24 (antibody, V domains shown)
VH: EVQLQQPGAELMRPGASVKLSCKASGYSFTGHWMNWVRQRPGQGLEWIGMIHPSDSETRLNQKFKDKATLTVDKSSSSAYMQLSSPTSEDSAVYYCARGIYFYGTTYFDYWGQGTTLTVSS
VL: DVQITQSPSYLAASPGETISINCRASKTISKYLAWYQEKPGKTNKLLIYSGSTLQSGIPSRFSGSGSGTDFTLTISSLEPEDFAMYYCQQHNEYPLTFGTGTKLELKR
notes: Murine anti-human CD11a MAb; also called muMHM24; murMHM24

- fold down from MHM23, Rh/HuCD11a:HuK adhesion [6]: 4 fold
- fold less efficacious than MHM23, RhLy:HuICAM adhesion [7]: 4 fold
- fold less efficacious than MHM23, RhLy:HuK adhesion [7]: 74 fold
- fold improvement over the EC50 of HuIgG1 for rhesus CD11a [4]: 240 to 415 fold
- IC50 Value (nM), Rh/HuCD11a:HuK cell adhesion [8]: 4.9 nM
- IC50 Value (nM), RhLy:HuICAM cell adhesion [9]: 5.3 nM
- IC50 Value (nM), RhLy:HuK cell adhesion [9]: 119 nM
- fold weaker than the EC50 of HuIgG1 for human CD11a [5]: 3 to 5 fold
- fold down from the Kd of HuIgG1 for human CD11a [10]: ~26 fold
- IC50 Value (nM), rhesus mixed lymphocyte response [11]: 23.4 nM
B4: rhesus-binding MHM24 RhIgG1 (antibody, V domains shown)
VH: B2 VH with H52A, S54A, D55S, E57S
VL: B2 VL
notes: HuIgG1 variant, human IgG1; also called H2C12; rhesusized antibody
